In one data set the target is T1, mouse HER3 (Mus musculus, UniProt Q61526).
T1 construct: purchased Sino Biological Inc., China
Put plainly: ELISA cross-reactivity, mouse HER3. It is filed as binding. How it is done:
(§1) ELISAs were used to determine the binding specificity of the antibodies. The antibodies were analysed for binding to human HER3 polypeptide, as well as respective mouse, rat and monkey homologues of HER3 (Sino Biological Inc., China). The antibodies were also analysed for their ability to bind to human EGFR and human HER2 (Sino Biological Inc., China).
(§2) ELISAs were carried out according to standard protocols. Briefly, 96-well plates (Nunc, Denmark) were coated with 0.1 μg/ml of target polypeptide in phosphate-buffered saline (PBS) for 16 h at 4° C. After blocking for 1 h with 1% BSA in Tris buffer saline (TBS) at room temperature, the anti-HER3 antibody was serially diluted with the highest concentration being 10 μg/ml, and added to the plate. Post 1 h incubation at room temperature, plates were washed three times with TBS containing 0.05% Tween 20 (TBS-T) and were then incubated with a HRP-conjugated anti-His antibody (Life Technologies, Inc., USA) for 1 h at room temperature. After washing, plates were developed with colorimetric detection substrate 3,3′,5,5′-tetramethylbenzidine (Turbo-TMB; Pierce, USA) for 10 min. The reaction was stopped with 2M H2SO4, and OD was measured at 450 nm. […]

The subject of a further data set is cynomolgus macaque HER3. Put plainly: ELISA cross-reactivity, cynomolgus macaque HER3. It is filed as binding. How it is done: as §1, §2
For orientation: ELISA stands for enzyme-linked immunosorbent assay.

Data set [1] has as its target heterodimerisation of HER3 and HER2 (Homo sapiens, UniProt P21860). In words: ELISA inhibition of HER2-HER3 interaction. Type of data set: biochemical. Conditions: Example 4.1: His-tagged HER2 coated, biotinylated HER3. The method, then:
The anti-HER3 antibodies were analysed for their ability to inhibit heterodimerisation of HER3 and HER2. Briefly, 96-well plates (Nunc, Denmark) were coated with 0.1 μg/ml His-tagged HER2 protein in PBS for 16 h at 4° C. After blocking for 1 h with 1% BSA in PBS at room temperature, recombinant biotinylated human HER3 protein was added in the presence of different concentrations of anti-HER3 antibody clone 10D1, and pates were incubated for 1 h at room temperature. Plates were subsequently washed three times, and then incubated with HRP-conjugated secondary antibody for 1 h at room temperature. After washing, plates were developed with colorimetric detection substrate 3,3′,5,5′-tetramethylbenzidine (Turbo-TMB; Pierce, USA) for 10 min. The reaction was stopped with 2M H2SO4, and OD was measured at 450 nm.
Plate-based ELISA dimerisation assays were carried out according to standard protocols. Plates were coated with 1 μg/ml HER2-Fc protein. […] Plates were then washed and incubated for 1 hour with secondary anti-HIS HRP antibody. Plates were washed, treated with TMB for 10 mins and the reaction was stopped using 2M H2SO4 stop solution. The absorbance was read at 450 nm.

The subject of the next data set is HER3-mediated signalling. In words: Phospho-western blot of HER3-mediated signalling in cancer cell lines. It is filed as cell-based, human. The settings on record: N87 and FaDu cells, 50 μg/ml 4 hrs, NRG 100 ng/ml. How it is done:
Briefly, N87 and FaDu cells were seeded in wells of a 6 well plate with 10% serum at 37° C., 5% CO2. After 16 hrs, cells were starved by culture overnight in 1% FBS cell culture medium (to reduce signalling elicited by growth factors in the serum). On the following day cells were treated with 50 μg/ml anti-HER3 antibody 10D1 for 4 hrs, followed by 15 min stimulation with NRG (100 ng/ml). Proteins were then extracted, quantified using standard Bradford protein assay, fractionated by SDS-PAGE, and transferred to nitrocellulose membranes. The membranes were then blocked and immunoblotted with the following antibodies overnight at 4° C. anti-pHER3, anti-pAKT, pan anti-HER3, pan anti-AKT and anti-beta-actin. The blots were visualized via Bio-Rad Clarity Western ECL substrate, and bands were quantified using densiometric analysis; data were normalized to beta actin controls.
N87, FaDu or OvCAR8 cells were seeded in wells in a 6 well plate with 10% serum overnight at 37° C. with 5% CO2.
Before harvesting, cells were stimulated with 100 ng/ml of NRG1. Protein extracted from cell lines were quantified using standard Bradford protein assay. Protein samples (50 μg) were fractionated by SDS-PAGE and transferred to nitrocellulose membrane. […] The blots were quantified using densiometric analysis and data was normalised to beta actin. […]

Data set [2] has as its system FaDu cells. In words: Phosphoprotein Antibody Array. It is filed as cell-based, human. Conditions: 50 μg/ml 4 hrs, NRG 100 ng/ml. The method, then:
FaDu cells were seeded in wells of a 6 well plate with 10% serum at 37° C., 5% CO2. After 16 hrs, cells were starved by culture overnight in 1% FBS cell culture medium. On the following day cells were treated with 50 μg/ml anti-HER3 antibody 10D1 for 4 hrs, followed by 15 min stimulation with NRG (100 ng/ml). Proteins were then extracted, quantified using standard Bradford protein assay, and incubated overnight with pre-blocked Phosphoprotein Antibody Array membrane (Ray Biotech) at 4° C. The membrane was then washed with washing buffer and incubated with detection antibody cocktail for 2 hrs at room temperature, followed by washing and incubation with HRP-Conjugated anti-IgG. After 2 hrs the membrane was washed and probed using the kit detection buffer. Images were captured with Syngene Gbox imaging system, the intensity of each dot/phosphoprotein was measured and percent inhibition was calculated by comparison with intensity measured for cells treated in the same way in the absence of the antibody.

Data set [3] deals with FaDu cells. In words: CCK-8 proliferation assay, FaDu. The settings on record: 5 days. It is filed as cell-based, human. The method, then: Briefly, N87 and FaDu cells were treated with serially diluted concentrations of anti-HER3 antibody 10D1, starting from 100 μg/ml with a 9-point half log dilution. Cell proliferation was measuring using the CCK-8 proliferation assay (Dojindo, Japan) after a period of 5 days, in accordance with the manufacturer's instructions. Briefly 1× CCK-8 solution was added to each well followed by incubation for 2 h at 37° C. The OD was then measured at 450 nm.
(In general: Formazan colour is commonly taken as a measure of viable cells.)

Data set [4] is described as follows: Pharmacokinetic analysis in NCr nude mice. Conditions: 500 μg.
Description: Female NCr nude mice approximately 6-8 weeks old were housed under specific pathogen-free conditions and treated in compliance with the Institutional Animal Care and Use Committee (IACUC) guidelines. 500 μg anti-HER3 antibody was administered and blood was obtained from 3 mice by cardiac puncture at baseline (−2 hr), 0.5 hr, 6 hr, 24 hr, 96 hr, 168 hr and 336 hr after administration. Antibody in the serum was quantified by ELISA.
The parameters for the pharmacokinetic analysis in rats and mice were derived from a non-compartmental model: maximum concentration (Cmax), AUC (0-336 hr), AUC (0-infinity), Half-life (t1/2), Clearance (CL), Volume of distribution at steady state (Vd).
Antibody in the serum was quantified by ELISA.
A single dose PK study was performed in NCr Nude mice (25 mg/kg HMBD-001, IV). A single dose PK study including a range of dose levels (2, 5, 10 and 25 mg/kg HMBD-001, IP) was conducted in A549 tumour bearing mice.

T1 sequence (Q61526 20-1339): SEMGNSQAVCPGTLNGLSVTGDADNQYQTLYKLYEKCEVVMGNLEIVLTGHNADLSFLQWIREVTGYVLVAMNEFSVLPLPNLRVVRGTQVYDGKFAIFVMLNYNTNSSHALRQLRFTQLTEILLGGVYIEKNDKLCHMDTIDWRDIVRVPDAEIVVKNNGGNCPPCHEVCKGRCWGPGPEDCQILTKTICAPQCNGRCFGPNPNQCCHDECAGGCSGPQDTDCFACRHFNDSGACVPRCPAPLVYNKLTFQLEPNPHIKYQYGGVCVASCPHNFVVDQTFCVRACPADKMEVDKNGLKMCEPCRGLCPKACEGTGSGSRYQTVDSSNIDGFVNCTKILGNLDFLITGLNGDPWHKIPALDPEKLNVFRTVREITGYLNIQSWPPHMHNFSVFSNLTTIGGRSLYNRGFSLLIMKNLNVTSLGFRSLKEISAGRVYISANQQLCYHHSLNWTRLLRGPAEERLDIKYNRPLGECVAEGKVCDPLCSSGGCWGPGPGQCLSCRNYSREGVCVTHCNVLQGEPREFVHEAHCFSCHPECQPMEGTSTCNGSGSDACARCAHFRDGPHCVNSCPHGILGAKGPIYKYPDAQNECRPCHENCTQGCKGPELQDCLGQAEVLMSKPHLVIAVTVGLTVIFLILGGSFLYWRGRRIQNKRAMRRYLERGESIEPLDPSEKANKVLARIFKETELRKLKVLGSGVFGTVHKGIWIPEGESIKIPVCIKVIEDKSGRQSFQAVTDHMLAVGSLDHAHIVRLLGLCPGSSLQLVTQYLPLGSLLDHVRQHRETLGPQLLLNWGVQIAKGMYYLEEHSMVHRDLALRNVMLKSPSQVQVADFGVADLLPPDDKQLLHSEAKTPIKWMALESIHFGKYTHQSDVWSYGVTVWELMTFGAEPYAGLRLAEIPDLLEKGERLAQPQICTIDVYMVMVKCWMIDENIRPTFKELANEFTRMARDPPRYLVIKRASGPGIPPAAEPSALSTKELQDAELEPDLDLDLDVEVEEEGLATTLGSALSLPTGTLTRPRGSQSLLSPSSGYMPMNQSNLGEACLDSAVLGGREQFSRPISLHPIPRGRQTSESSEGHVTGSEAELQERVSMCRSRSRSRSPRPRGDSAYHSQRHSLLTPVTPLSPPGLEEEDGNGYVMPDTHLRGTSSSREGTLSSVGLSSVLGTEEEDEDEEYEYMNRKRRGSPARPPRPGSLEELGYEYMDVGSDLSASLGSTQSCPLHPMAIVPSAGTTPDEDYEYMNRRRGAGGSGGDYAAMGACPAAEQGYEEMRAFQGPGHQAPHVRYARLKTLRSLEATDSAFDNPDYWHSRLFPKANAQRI

B1: 10D1: anti-HER3 antibody clone, VH SEQ ID NO:24, VL SEQ ID NO:74; [1] of Example 2.2 (antibody, V domains shown)
VH: DVQLQESGPDLVKPSQSLSLTCTVTGYSITSGYSWHWIRQFPGNKLEWMGSIHYSGGTNYNPSLKSRISITRDTSKNQFFLQLNSVTTEDTATYFCARMTTAPRYPFDYWGQGTTLTVSS
VL: DIVMTQSQKFMSTSVGDRVSVTCKASQIVGSNVAWYQQKPGQSPKPLIYSASYRYSGVPDRFTASGSGTDFTLTITNVQSEDLAEYFCQQYSSHPLTFGAGTKLELK
With B1, in the data set with mouse HER3, the “binding / cross-reactivity with mouse HER3” value is “substantial cross-reactivity”. Moreover, the “binding / cross-reactivity with cynomolgus macaque HER3” value in the data set with cynomolgus macaque HER3 is on record as “substantial cross-reactivity”. The “inhibition of interaction between HER2 and HER3” value in data set [1] is “inhibit interaction between HER2 and HER3 in a dose-dependent fashion”. Further, the “HER3 phosphorylation and downstream signalling” value in the data set on HER3-mediated signalling was “inhibit HER3 phosphorylation and downstream signalling”. The “intracellular signalling pathways affected” value with FaDu cells [2] is “inhibit P13K/AKT/mTOR and MAPK signalling”. Moreover, in the data set with FaDu cells [3], the cell proliferation entry is on record as “dose-dependent inhibition of cell proliferation”. The half-life (as a rule, the time needed for the level to fall by half in the phase considered) in data set [4] came out at 16.3 days.

Source of the values: patent US20250122303A1, “TREATMENT AND PREVENTION OF CANCER USING HER3 ANTIGEN-BINDING MOLECULES” (Hummingbird Bioscience Pte. Ltd., priority 2021, published 2025).
